The source of these data is the DeepSol protein solubility set.

A short description of the series: soluble on expression in E. coli; label from the status in PepcDB or PDB records.
In the case of “MKGRVVIADDEPITRMDIVEMLLEEGYDIVGEASDGFDAIELCKKHKPDLVLMDVKMPLLNGLKAAEVINQDELAACVVLVTAYSGREFVEEAKKAGAMGYVVKPINEKNLLPTLEVAVSKSKEFNEMKSQVKKAQVQLEDRKQIERAKGILMKKEMLSEEEAYNQIRKLSMSKRCSMGEIAKIITMNQ”, the “soluble on expression in E. coli” value is given as “not soluble”. Consider “MGSDKIHHHHHHMSRSDARICAIHQPNFFPWLGYFDKIVRADIFVLLDDVQYQKTGGNWTNRVQMMIGQGPKWVTAPVDRSYSGVRQIREIRFSPVEREWREKLCSTITASYGRAAYFREVYPFIEPIIMNDSDFLSDYNSHAIAALCDYLEIESSKLVRSSQFNLQNNATDLLIDITKAVGAVRYLCGGGAQGYQEDEKFPRHGIQLIYQNFCHPIYTQANDAPFQPGLSIVDALMHCGRRGVIELLNRK”, for which the “soluble on expression in E. coli” value is listed as “not soluble”.

In the case of “ASHSRKFLDVRSEEELLSCIKKETEAGKLPPNVAAGMEELYQNYRNAVIESGNPKADEIVLSNMTVALDRILLDVEDPFVFSSHHKAIREPFDYYIFGQNYIRPLIDFGNSFVGNLSLFKDIEEKLQQGHNVVLISNHQTEADPAIISLLLEKTNPYIAENTIFVAGDRVLADPLCKPFSIGRNLICVYSKKHMFDIPELTETKRKANTRSLKEMALLLRGGSQLIWIAPSGGRDRPDPSTGEWYPAPFDASSVDNMRRLIQHSDVPGHLFPLALLCHDIMPPPSQVEIEIGEKRVIAFNGAGLSVAPEISFEEIAATHKNPEEVREAYSKALFDSVAMQYNVLKTAISGKQGLGASTADVSLSQPW”, the “soluble on expression in E. coli” value was “soluble”. With “DLPIADVQGSLDTRHIAIDRVGIKAIRHPVVVADKGGGSQHTVAQFNMYVNLPHNFKGTHMSRFVEILNSHEREISVESFEEILRSMVSRLESDSGHIEMAFPYFINKSAPVSGVKSLLDYEVTFIGEIKHGNQYSFTMKVIVPVTSLCPCSKKISDYGAHNQRSHVTISVRTNSFIWIEDIIRIAEEQASCELYGLLKRPDEKYVTERAYNNPKFVEDIVRDVAEVLNHDDRIDAYIVESENFESIHNHSAYA” the entry was “not soluble”.

In the case of “MSLSGKPITDQQIRLYVNERKQGQTQLAASAKSGLSERSGRRIDSGELNTEPTPKRQWRTRKDPLAEVWSSVLVPMLEANPELLPLTLFEYLHDNYPNQYDNTVLRTLQRRVKAWKVKHGPAKEVMFRQTKVPGRLGLSDFTLLKGVTITILGQVFCHLLYHYRLAFSGWTYAKVICGGESYTALSTGLQNALWRSGGAPLEHRTDSLSAAFNNLAEKEQMTVRYDALCHHYQLKGSRNNPGKSHENGTIEAAHGHLKRRMTQALLLRGDTDFTSLEAYQAFVDGIVTKINQQCRTRFEQERPLLQTLPKRRTHDYAEHSVLISSSSSFDLKRVTYTVPSRFIGERLYVQLYDERLDLFSGHEQIMSLPRVYATTTQRGRSVDYRHVIDSLVKKPGAFRYSQLRDDLLPTPDYHRIWQYVDGTLNPHDACRYIVRLLHLAATAQCQDSLGRYVLKSIEGGELPSNLQCNKRFSTDTAVIPLITAKQHLLADYDQLLCVEVQHGEGHHHHHH”, the “soluble on expression in E. coli” value is “not soluble”. In the case of “MGSDKIHHHHHHCQNHVETMSITNNDAYLLQQTALSSSLGYDIVESLTVEVGPRLAGSPKDIIAVNWAMDKLTHLGFDRVYKEPVQVPIWERGEAKAKITFPVEQPLVITALGGSVATPTTGIQAKIIRFDSLEALKQANPEDVKGRIAFIDQKTERHITGEGYGKSVGGRSKGAVAAAEKGAVAIIIRSIGTDHDRMAHTGVMRYQDGVPKIPAAAMSNPDADLVTAMLRRDPNAILELQMSPKNSGFNTSYNVIAEVTGSSKPNEIVLIGAHLDSWDEGTGAIDDGAGVAIVTAAAKHIQDLPIKPARTVRVVLYAAEEIGLMGGKAYAEAHKAELPLHYIAAESDFGAGRIYQIDTKVNEGVFTKVQNILKPMTLNGVTLGSNQASAGPDISMLPAQGVPVASLRQDGRDYFDYHHTPNDTLDKIDPAALAQNVAAYAQFAYLMANSNIVLTPLASEIK”, the “soluble on expression in E. coli” value is recorded as “not soluble”. To “MNKKKFENLPKWNNFALFNFLAKDKENSLEVMVAARGFAVPGIVATNYETAEEAANVVKELQTTAEVISVGLGGGGDWQNWRDVLHIARLAPNSHINQPIETAGLTNGLLPETYTNALVRPTGKVGIVKLSSGDEITAEEAVDYCLSANIPSIKFMSIEGTKYLDELVYLTKIAADKGIYGIEPAGGIGADNILEITTAIKSTGIPFYMPHIFGKTIDKATGRTKPEEIEKIFAALEGN” belongs “soluble”. To “MSRQTEIVRRMVSAFNTGRTDDVDEYIHPDYLNPATLEHGIHTGPKAFAQLVGWVRATFSEEARLEEVRIEERGPWVKAYLVLYGRHVGRLVGMPPTDRRFSGEQVHLMRIVDGKIRDHRDWPDFQGTLRQLGDPWPDDEGWRP” belongs “soluble”; to “HGIQLLGYARKILRFNDEACSSLMFSNLQGVLTIGASDESADTILPFLLNRVSSVYPKLALDVRVKRNAYMAEMLESQEVDLMVTTHRPSAFKALNLRTSPTHWYCAAEYILQKGEPIPLVLLDDPSPFRDMVLATLNKADIPWRLAYVASTLPAVRAAVKAGLGVTARPVEMMSPDLRVLSGVDGLPPLPDTEYLLCYDPSSNNELAQVIYQAMESYHNPWQYSPMSAPEGDDSLLIERDIE”, “soluble”. Turning to “MGYLKNHWWKRWIRRRGCKLAGGPASVGKRTTLVLEERVELGHLRIVPPRLEIGAYSYVRSGTDLSLVASIGRFCSIGSDCFIGQEKHTHPSDWVSSHPFQHTGTALRYEPALSYAEIGHDVWIGHSAMVMEGVKVGTGAIIATRAVVTRDVPPYAIVAGTPAQVIRYRHPPEIIEGLLASRWWELDSAFLTGLPLDRPREFLAALEAREAPRAAYRRMTITRQGCRLD”, the “soluble on expression in E. coli” value was “not soluble”. With “MKEFIISEARTEPTVLVGLITPQQSETQVREYLDELAFLCETAGAQPIARFTQKLDQPNSVTFVGKGKLDEIRAYVQENEIGMVVFDDELSPKQLRNIEKELQTKILDRTGLILDIFARRAQTAHAKTQVELAQYQYMLPRLTGLWTHLERQRGGVGMRGPGEKQLETDRRIVLDKIARLKEELRDIDKQKSVQRKNRGKMVRVALVGYTNVGKSTLMNVLSKSEVFAENKLFATLDTTVRKVIIDNLPFLLSDTVGFIRKLPTQLVESFKSTLDEVREADLLVHVVDMSHPAFEEQIEVVNQTLAEITAGEEKPMLLLFNKIDAFSFTPKDEDDLTPRTKENISAEELQQTWMAKLGNDCLFVSAKKGTGMDALKALLYERAKAIHITRFPYNDFLFQDYSEEME” the entry was “not soluble”; with “MKTYEVGALLEAANQRDTKKVKEILQDTTYQVDEVDTEGNTPLNIAVHNNDIEIAKALIDRGADINLQNSISDSPYLYAGAQGRTEILAYMLKHATPDLNKHNRYGGNALIPAAEKGHIDNVKLLLEDGREDIDFQNDFGYTALIEAVGLREGNQLYQDIVKLLMENGADQSIKDNSGRTAMDYANQKGYTEISKILAQYN”, “soluble”; with “SIVHHAKERLILCSPYFIPDESLLEAVTSACYRGVTVELFVSEQADQFAIDHAQSSYYQALLEAGVKIYQFPKPDVLHTKYMIADPDDTTGNEALGVLGSSNLDIRSFGLNYEISLMIAKGNLIHELNALTDRYRTVSFKLTLDKWNQRSWRRRYVDNVMRLTSALQ”, “not soluble”. To “ATPAPAAEMPGITIISASQTGNARRVAEALRDDLLAAKLNVKLVNAGDYKFKQIASEKLLIVVTSTQGEGEPPEEAVALHKFLFSKKAPKLENTAFAVFSLGDTSYEFFCQSGKDFDSKLAELGGERLLDRVDADVEYQAAASEWRARVVDALKSRAPVAAPSQSVA” belongs “soluble”; to “MAKLRPYYEESQSAYDISDDFFALFLDPTWVYTCAYFERDDMTLEEAQLAKVDLALDKLNLEPGMTLLDVGCGWGGALVRAVEKYDVNVIGLTLSRNHYERSKDRLAAIGTQRRAEARLQGWEEFEENVDRIVSFEAFDAFKKERYLTFFERSYDILPDDGRMLLHSLFTYDRRWLHEQGIALTMSDLRFLKFLRESIFPGGELPSEPDIVDNAQAAGFTIEHVQLLQQHYARTLDAWAANLQAARERAIAVQSEEVYNNFMHYLTGCAERFRRGLINVAQFTMTK”, “soluble”; to “MAHHHHHHMSDCHWAVIRKAVEAEWDASIIPALAAYIEVPNQSPDFDPQWATNGLLTKAFTILINWMKGQNLLGLSYELMEVEGRTPFLLVEIAGTEPTKNTLLMYGHMDKQPPLHPWGEGLDPHKAVVRDGKLYGRGGADDGYALFSAITSVSVLQRHGIPHGRVIVVIEACEESGSFDLDYYMERCKERIGNVDLMICLDSACLNYSQVWLTTSLRGVTGGVLNVQTLTESMHSGVAGGVVPDTFRIARELLDRVEDSKTGKVLFPEAYCEIPDYVVKSMESMKAVPFKEQFAMADGVSAEPGDNVELALRNFWKPSLTVTGSNLPEPQIAGNVIRTHTSLKLSLRVPPLVDAEKATQAMAKVLVANPPYGAKVWFEPEVPGDGCATPELKPWLVTALNEGSKMAYGNPLAFQGMGASIPFISMLLKAYPQAQFVVTGVLGPKSNAHGPNEFLHIEYAKGLTFAISRVVAEHFSHTPK”, “soluble”.

With “MAENRNRKPSDSQVDAIKVPPHSLEAEQSVIGGLLLDNERWDTVAERVVASDFYSRPHRLIFEGVKTILESGKPLDLITLSEHLERHEQLEDVGGFAYLADLAKNTPSAANINAYADIVAERAIVRGLIGVANEIADAGYDPQGRSSEDLIDMAESKVFAIAESRTSENEGPQNVDNILEKTLERIELLYKTPQDGVTGVDTGFTDLNKKTAGLQGSDLVIVAARPSMGKTTFAMNLCENAAMQQDKPVLIFSLEMPAEQLMMRMLASLSRVDQTKIRTGQLDDEDWARISSTMGILMQKKNMYIDDSSGLTPTEVRSRARRVAREHGGLSMIMVDYLQLMRVPSLTDNRTLEIAEISRSLKALAKELNVPVVALSQLNRSLEQRADKRPVNSDLRESGSIEQDADLIMFIYRDEVYHPDSPYKGTAEIIIGKQRNGPIGSVRLTFQGQHSRFDNYAGPAFDIDDE”, the “soluble on expression in E. coli” value was “not soluble”. To “MRDTRGGDQGGGLEAQGGAEARNALPPETIVLILPWEPGSRRQPLKAGQVILKWGGYTMPYLVGPKGQVVIAKEIRERLGIRPGWRVIQRLVDDHVELYFLPPPHKASLKGLLRDKIRGTVSEEAWAEARERAWRASWSEEGEG” belongs “soluble”; to “MGSDKIHHHHHHMIPEEIYKILRKQRYQIDGHTAVKLCGWVRKKMLEDKNCYKSKFYGIETHRCIQCTPSVIWCQQNCIFCWRVLPRDIGIDISQIKEPKWEEPEVVYEKILAMHKRIIMGYAGVLDRVGEKKFKEALEPKHVAISLSGEPTLYPYLDELIKIFHKNGFTTFVVSNGILTDVIEKIEPTQLYISLDAYDLDSYRRICGGKKEYWESILNTLDILKEKKRTCIRTTLIRGYNDDILKFVELYERADVHFIELKSYMHVGYSQKRLKKEDMLQHDEILKLAKMLDENSSYKLIDDSEDSRVALLQNENRKINPKL”, “not soluble”; to “MGSDKIHHHHHHMKSWVENVTIKKYEDRSGLTGLKQGPLVWTEVFLREVNRQSNTGILHFWPMDQTVILGMMDSQVAQLDKGLASIGQAGYSPIIRSLGGLAVVADDGILNVTLIFPNPSGHKVDLRESYQVMVDLIAQALSDFPFEVVSGEVATSYCPGTYDLSIKGRKFAGLAQRIYQEAIAISAYISVSGNQVKRGQVVADFYAASFAPQEVSDRFPQVNPNSMANLSDLVAQDLTMEDMKIRIEHVLIENGAFLTTFYPSSDNMADFMALGKTIKQSMEKYGI”, “not soluble”. Regarding “MRDTLVLNASFEPLSTVTLNRAVILVLQDKAVVEQAHPELRMRGAALDIPVPRVIRLCRYVRVPFRRQAPWSRRGVLVRDRHRCAYCGRRATTVDHVVPRAQGGQDSWLNTVASCAEDNHRKAARTPEQAGMPLLRQPFEPTPADAMLLALGQDDFESLPEWLAQPAALEHHHHHH”, the “soluble on expression in E. coli” value is “not soluble”.
